Test results from patent US11130793B2, “GLP-1/GLP-2 dual agonists” (Zealand Pharma A/S, priority 2016, dated 2021).
Each block holds one binder with its values, some of them ahead of it. Square brackets hold non-standard residues; d marks the D form. Aib = CC(C)(N)C(=O)O

Legend:
[1] = target: human glucagon-like peptide 1 receptor (GLP-1R) (human, UniProt P43220); assay: cell-based or functional assay
[2] = target: T1, human GLP-2 receptor (hGLP2-R) (human, UniProt O95838); assay: cell-based or functional assay
T1 sequence: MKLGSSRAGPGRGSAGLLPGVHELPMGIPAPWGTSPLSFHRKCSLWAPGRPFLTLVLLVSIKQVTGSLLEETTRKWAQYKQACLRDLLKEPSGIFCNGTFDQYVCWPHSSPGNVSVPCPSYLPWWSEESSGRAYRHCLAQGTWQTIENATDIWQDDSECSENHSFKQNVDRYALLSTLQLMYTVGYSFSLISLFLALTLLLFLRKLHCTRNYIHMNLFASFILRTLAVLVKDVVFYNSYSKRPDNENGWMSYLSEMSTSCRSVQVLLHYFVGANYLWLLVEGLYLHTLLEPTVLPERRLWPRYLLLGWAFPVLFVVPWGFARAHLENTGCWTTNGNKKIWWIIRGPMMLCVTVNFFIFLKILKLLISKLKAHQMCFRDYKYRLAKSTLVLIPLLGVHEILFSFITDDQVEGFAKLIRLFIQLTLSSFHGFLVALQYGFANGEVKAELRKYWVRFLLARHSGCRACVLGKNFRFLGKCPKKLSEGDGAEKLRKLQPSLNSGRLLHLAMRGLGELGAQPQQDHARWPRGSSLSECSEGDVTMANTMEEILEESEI

B1: Compound 11 (peptide)
peptide: H-H[Aib]EGTFTSELATILDGKAARDFIAWLIAHKITD-OH
SMILES: CC[C@H](C)[C@H](NC(=O)[C@H](CC(C)C)NC(=O)[C@H](Cc1c[nH]c2ccccc12)NC(=O)[C@H](C)NC(=O)[C@@H](NC(=O)[C@H](Cc1ccccc1)NC(=O)[C@H](CC(=O)O)NC(=O)[C@H](CCCNC(=N)N)NC(=O)[C@H](C)NC(=O)[C@H](C)NC(=O)[C@H](CCCCN)NC(=O)CNC(=O)[C@H](CC(=O)O)NC(=O)[C@H](CC(C)C)NC(=O)[C@@H](NC(=O)[C@@H](NC(=O)[C@H](C)NC(=O)[C@H](CC(C)C)NC(=O)[C@H](CCC(=O)O)NC(=O)[C@H](CO)NC(=O)[C@@H](NC(=O)[C@H](Cc1ccccc1)NC(=O)[C@@H](NC(=O)CNC(=O)[C@H](CCC(=O)O)NC(=O)C(C)(C)NC(=O)[C@@H](N)Cc1c[nH]cn1)[C@@H](C)O)[C@@H](C)O)[C@@H](C)O)[C@@H](C)CC)[C@@H](C)CC)C(=O)N[C@@H](C)C(=O)N[C@@H](Cc1c[nH]cn1)C(=O)N[C@@H](CCCCN)C(=O)N[C@H](C(=O)N[C@H](C(=O)N[C@@H](CC(=O)O)C(=O)O)[C@@H](C)O)[C@@H](C)CC
EC50 GLP-1 (nM); cAMP AlphaScreen [1]: 0.011 nM
EC50 GLP-2 (nM); cAMP AlphaScreen [2]: 0.085 nM

B2: Compound 10 (peptide)
peptide: H-H[Aib]EGTFTSELSTILDEQAARDFIAWLIAHKITD-OH
SMILES: CC[C@H](C)[C@H](NC(=O)[C@H](CC(C)C)NC(=O)[C@H](Cc1c[nH]c2ccccc12)NC(=O)[C@H](C)NC(=O)[C@@H](NC(=O)[C@H](Cc1ccccc1)NC(=O)[C@H](CC(=O)O)NC(=O)[C@H](CCCNC(=N)N)NC(=O)[C@H](C)NC(=O)[C@H](C)NC(=O)[C@H](CCC(N)=O)NC(=O)[C@H](CCC(=O)O)NC(=O)[C@H](CC(=O)O)NC(=O)[C@H](CC(C)C)NC(=O)[C@@H](NC(=O)[C@@H](NC(=O)[C@H](CO)NC(=O)[C@H](CC(C)C)NC(=O)[C@H](CCC(=O)O)NC(=O)[C@H](CO)NC(=O)[C@@H](NC(=O)[C@H](Cc1ccccc1)NC(=O)[C@@H](NC(=O)CNC(=O)[C@H](CCC(=O)O)NC(=O)C(C)(C)NC(=O)[C@@H](N)Cc1c[nH]cn1)[C@@H](C)O)[C@@H](C)O)[C@@H](C)O)[C@@H](C)CC)[C@@H](C)CC)C(=O)N[C@@H](C)C(=O)N[C@@H](Cc1c[nH]cn1)C(=O)N[C@@H](CCCCN)C(=O)N[C@H](C(=O)N[C@H](C(=O)N[C@@H](CC(=O)O)C(=O)O)[C@@H](C)O)[C@@H](C)CC
EC50 GLP-1 (nM); cAMP AlphaScreen [1]: 0.005 nM
EC50 GLP-2 (nM); cAMP AlphaScreen [2]: 0.05 nM

B3: Compound 9 (peptide)
peptide: H-H[Aib]EGTFTDELATILDEQAARDFIAWLIAHKITD-OH
SMILES: CC[C@H](C)[C@H](NC(=O)[C@H](CC(C)C)NC(=O)[C@H](Cc1c[nH]c2ccccc12)NC(=O)[C@H](C)NC(=O)[C@@H](NC(=O)[C@H](Cc1ccccc1)NC(=O)[C@H](CC(=O)O)NC(=O)[C@H](CCCNC(=N)N)NC(=O)[C@H](C)NC(=O)[C@H](C)NC(=O)[C@H](CCC(N)=O)NC(=O)[C@H](CCC(=O)O)NC(=O)[C@H](CC(=O)O)NC(=O)[C@H](CC(C)C)NC(=O)[C@@H](NC(=O)[C@@H](NC(=O)[C@H](C)NC(=O)[C@H](CC(C)C)NC(=O)[C@H](CCC(=O)O)NC(=O)[C@H](CC(=O)O)NC(=O)[C@@H](NC(=O)[C@H](Cc1ccccc1)NC(=O)[C@@H](NC(=O)CNC(=O)[C@H](CCC(=O)O)NC(=O)C(C)(C)NC(=O)[C@@H](N)Cc1c[nH]cn1)[C@@H](C)O)[C@@H](C)O)[C@@H](C)O)[C@@H](C)CC)[C@@H](C)CC)C(=O)N[C@@H](C)C(=O)N[C@@H](Cc1c[nH]cn1)C(=O)N[C@@H](CCCCN)C(=O)N[C@H](C(=O)N[C@H](C(=O)N[C@@H](CC(=O)O)C(=O)O)[C@@H](C)O)[C@@H](C)CC
EC50 GLP-1 (nM); cAMP AlphaScreen [1]: 0.007 nM
EC50 GLP-2 (nM); cAMP AlphaScreen [2]: 0.041 nM

B7: Compound 8 (peptide)
peptide: H-H[Aib]EGSFTSELATILDEQAARDFIAWLILHKITD-OH
SMILES: CC[C@H](C)[C@H](NC(=O)[C@H](Cc1ccccc1)NC(=O)[C@H](CC(=O)O)NC(=O)[C@H](CCCNC(=N)N)NC(=O)[C@H](C)NC(=O)[C@H](C)NC(=O)[C@H](CCC(N)=O)NC(=O)[C@H](CCC(=O)O)NC(=O)[C@H](CC(=O)O)NC(=O)[C@H](CC(C)C)NC(=O)[C@@H](NC(=O)[C@@H](NC(=O)[C@H](C)NC(=O)[C@H](CC(C)C)NC(=O)[C@H](CCC(=O)O)NC(=O)[C@H](CO)NC(=O)[C@@H](NC(=O)[C@H](Cc1ccccc1)NC(=O)[C@H](CO)NC(=O)CNC(=O)[C@H](CCC(=O)O)NC(=O)C(C)(C)NC(=O)[C@@H](N)Cc1c[nH]cn1)[C@@H](C)O)[C@@H](C)O)[C@@H](C)CC)C(=O)N[C@@H](C)C(=O)N[C@@H](Cc1c[nH]c2ccccc12)C(=O)N[C@@H](CC(C)C)C(=O)N[C@H](C(=O)N[C@@H](CC(C)C)C(=O)N[C@@H](Cc1c[nH]cn1)C(=O)N[C@@H](CCCCN)C(=O)N[C@H](C(=O)N[C@H](C(=O)N[C@@H](CC(=O)O)C(=O)O)[C@@H](C)O)[C@@H](C)CC)[C@@H](C)CC
EC50 GLP-1 (nM); cAMP AlphaScreen [1]: 0.021 nM
EC50 GLP-2 (nM); cAMP AlphaScreen [2]: 0.084 nM

The remaining lines, values ahead:

EC50 GLP-1 (nM); cAMP AlphaScreen [1]: 0.021 nM
EC50 GLP-2 (nM); cAMP AlphaScreen [2]: 0.049 nM
B4: Compound 14 (peptide)
peptide: H-H[Aib]EGTFTSELATILDEQAARDFIAWLYAHKITD-OH
SMILES: CC[C@H](C)[C@H](NC(=O)[C@H](Cc1ccccc1)NC(=O)[C@H](CC(=O)O)NC(=O)[C@H](CCCNC(=N)N)NC(=O)[C@H](C)NC(=O)[C@H](C)NC(=O)[C@H](CCC(N)=O)NC(=O)[C@H](CCC(=O)O)NC(=O)[C@H](CC(=O)O)NC(=O)[C@H](CC(C)C)NC(=O)[C@@H](NC(=O)[C@@H](NC(=O)[C@H](C)NC(=O)[C@H](CC(C)C)NC(=O)[C@H](CCC(=O)O)NC(=O)[C@H](CO)NC(=O)[C@@H](NC(=O)[C@H](Cc1ccccc1)NC(=O)[C@@H](NC(=O)CNC(=O)[C@H](CCC(=O)O)NC(=O)C(C)(C)NC(=O)[C@@H](N)Cc1c[nH]cn1)[C@@H](C)O)[C@@H](C)O)[C@@H](C)O)[C@@H](C)CC)C(=O)N[C@@H](C)C(=O)N[C@@H](Cc1c[nH]c2ccccc12)C(=O)N[C@@H](CC(C)C)C(=O)N[C@@H](Cc1ccc(O)cc1)C(=O)N[C@@H](C)C(=O)N[C@@H](Cc1c[nH]cn1)C(=O)N[C@@H](CCCCN)C(=O)N[C@H](C(=O)N[C@H](C(=O)N[C@@H](CC(=O)O)C(=O)O)[C@@H](C)O)[C@@H](C)CC

EC50 GLP-1 (nM); cAMP AlphaScreen [1]: 0.055 nM
EC50 GLP-2 (nM); cAMP AlphaScreen [2]: 0.076 nM
B5: Compound 12 (peptide)
peptide: H-H[Aib]EGTFTSELATILDEQAARDFIAWLHAHKITD-OH
SMILES: CC[C@H](C)[C@H](NC(=O)[C@H](Cc1ccccc1)NC(=O)[C@H](CC(=O)O)NC(=O)[C@H](CCCNC(=N)N)NC(=O)[C@H](C)NC(=O)[C@H](C)NC(=O)[C@H](CCC(N)=O)NC(=O)[C@H](CCC(=O)O)NC(=O)[C@H](CC(=O)O)NC(=O)[C@H](CC(C)C)NC(=O)[C@@H](NC(=O)[C@@H](NC(=O)[C@H](C)NC(=O)[C@H](CC(C)C)NC(=O)[C@H](CCC(=O)O)NC(=O)[C@H](CO)NC(=O)[C@@H](NC(=O)[C@H](Cc1ccccc1)NC(=O)[C@@H](NC(=O)CNC(=O)[C@H](CCC(=O)O)NC(=O)C(C)(C)NC(=O)[C@@H](N)Cc1c[nH]cn1)[C@@H](C)O)[C@@H](C)O)[C@@H](C)O)[C@@H](C)CC)C(=O)N[C@@H](C)C(=O)N[C@@H](Cc1c[nH]c2ccccc12)C(=O)N[C@@H](CC(C)C)C(=O)N[C@@H](Cc1c[nH]cn1)C(=O)N[C@@H](C)C(=O)N[C@@H](Cc1c[nH]cn1)C(=O)N[C@@H](CCCCN)C(=O)N[C@H](C(=O)N[C@H](C(=O)N[C@@H](CC(=O)O)C(=O)O)[C@@H](C)O)[C@@H](C)CC

EC50 GLP-1 (nM); cAMP AlphaScreen [1]: 0.016 nM
EC50 GLP-2 (nM); cAMP AlphaScreen [2]: 0.083 nM
B6: Compound 13 (peptide)
peptide: H-H[Aib]EGTFTSELATILDEQAARDFIAWLQAHKITD-OH
SMILES: CC[C@H](C)[C@H](NC(=O)[C@H](Cc1ccccc1)NC(=O)[C@H](CC(=O)O)NC(=O)[C@H](CCCNC(=N)N)NC(=O)[C@H](C)NC(=O)[C@H](C)NC(=O)[C@H](CCC(N)=O)NC(=O)[C@H](CCC(=O)O)NC(=O)[C@H](CC(=O)O)NC(=O)[C@H](CC(C)C)NC(=O)[C@@H](NC(=O)[C@@H](NC(=O)[C@H](C)NC(=O)[C@H](CC(C)C)NC(=O)[C@H](CCC(=O)O)NC(=O)[C@H](CO)NC(=O)[C@@H](NC(=O)[C@H](Cc1ccccc1)NC(=O)[C@@H](NC(=O)CNC(=O)[C@H](CCC(=O)O)NC(=O)C(C)(C)NC(=O)[C@@H](N)Cc1c[nH]cn1)[C@@H](C)O)[C@@H](C)O)[C@@H](C)O)[C@@H](C)CC)C(=O)N[C@@H](C)C(=O)N[C@@H](Cc1c[nH]c2ccccc12)C(=O)N[C@@H](CC(C)C)C(=O)N[C@@H](CCC(N)=O)C(=O)N[C@@H](C)C(=O)N[C@@H](Cc1c[nH]cn1)C(=O)N[C@@H](CCCCN)C(=O)N[C@H](C(=O)N[C@H](C(=O)N[C@@H](CC(=O)O)C(=O)O)[C@@H](C)O)[C@@H](C)CC
